Measurements published in paper PMC7806720, “Restoration of the reduced CLSP activity alleviates memory impairment in Alzheimer disease” (Translational Psychiatry, 2021).

Key:
[1] = molecular target: recombinant apolipoprotein E4 (UniProt P02649); assay: plate binding assay with HiBiT luminescence (Nano-Glo HiBiT Extracellular Detection System); ApoE4 or adiponectin coated on 96-well plates (20 pM in 50 mM carbonate buffer pH 9.6, overnight 4 °C), blocked with 1% skim milk in PBS; CLSP-HiBiT in PBS added, overnight 4 °C; washed with PBS with 0.1% NP-40; in duplicate
[2] = molecular target: T1, recombinant adiponectin (UniProt Q15848 19-244); assay: as above; conditions: both partners purified
T1 construct: adiponectin; also called ADN; source: recombinant
T1 sequence (looked up): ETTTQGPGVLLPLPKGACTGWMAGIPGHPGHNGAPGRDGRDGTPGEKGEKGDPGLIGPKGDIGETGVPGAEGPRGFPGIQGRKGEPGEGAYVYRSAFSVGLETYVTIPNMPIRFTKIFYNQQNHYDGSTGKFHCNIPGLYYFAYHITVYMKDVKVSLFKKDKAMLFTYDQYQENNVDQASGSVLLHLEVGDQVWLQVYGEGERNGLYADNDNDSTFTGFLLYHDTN

- Kd [1]: 8.8 pM
- Kd [2]: 7.8 pM
B1: CLSP-HiBiT (natural protein, human, UniProt Q9NZT1 1-146, looked up)
chain: MAGELTPEEEAQYKKAFSAVDTDGNGTINAQELGAALKATGKNLSEAQLRKLISEVDSDGDGEISFQEFLTAAKKARAGLEDLQVAFRAFDQDGDGHITVDELRRAMAGLGQPLPQEELDAMIREADVDQDGRVNYEEFARMLAQE
notes: calmodulin-like skin protein (CLSP); also called recombinant CLSP-HiBiT; source: recombinant
